The record followed here is PMC6159513.

Some targets named below: TLS/FUSΔR (UniProt P35637 1-506); TLS/FUSΔP (UniProt P35637 1-526, del449-468); RGG3ΔP (UniProt P35637 469-526); TLS/FUS (UniProt P35637 1-526); RGG3 (UniProt P35637 449-526).
Experiment in all cases: EMSA
Data set [1] has as its target RBD (RGG1-RGG2-RGG3 containing) (UniProt P35637 212-526).
In the next data set the target is T1, RGG3ΔRGG (UniProt P35637 449-526, del468-506).
T1 chain: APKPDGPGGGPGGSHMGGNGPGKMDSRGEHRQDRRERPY

Chain of TLS/FUSΔR (P35637 1-506, stated change not applied): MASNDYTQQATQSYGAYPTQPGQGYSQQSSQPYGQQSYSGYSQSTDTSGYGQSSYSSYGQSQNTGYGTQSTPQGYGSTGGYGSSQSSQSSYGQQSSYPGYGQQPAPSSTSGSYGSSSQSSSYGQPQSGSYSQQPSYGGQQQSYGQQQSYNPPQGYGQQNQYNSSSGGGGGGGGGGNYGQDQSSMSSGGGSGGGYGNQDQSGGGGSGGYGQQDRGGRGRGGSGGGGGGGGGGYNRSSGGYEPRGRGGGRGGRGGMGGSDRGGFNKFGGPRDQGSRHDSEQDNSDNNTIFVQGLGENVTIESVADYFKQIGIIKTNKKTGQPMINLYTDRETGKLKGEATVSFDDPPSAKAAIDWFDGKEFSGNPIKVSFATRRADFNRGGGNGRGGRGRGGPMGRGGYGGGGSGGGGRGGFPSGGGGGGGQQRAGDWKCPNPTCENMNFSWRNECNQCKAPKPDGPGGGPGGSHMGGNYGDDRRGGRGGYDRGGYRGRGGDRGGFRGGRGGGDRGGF
Chain of RBD (RGG1-RGG2-RGG3 containing) (P35637 212-526): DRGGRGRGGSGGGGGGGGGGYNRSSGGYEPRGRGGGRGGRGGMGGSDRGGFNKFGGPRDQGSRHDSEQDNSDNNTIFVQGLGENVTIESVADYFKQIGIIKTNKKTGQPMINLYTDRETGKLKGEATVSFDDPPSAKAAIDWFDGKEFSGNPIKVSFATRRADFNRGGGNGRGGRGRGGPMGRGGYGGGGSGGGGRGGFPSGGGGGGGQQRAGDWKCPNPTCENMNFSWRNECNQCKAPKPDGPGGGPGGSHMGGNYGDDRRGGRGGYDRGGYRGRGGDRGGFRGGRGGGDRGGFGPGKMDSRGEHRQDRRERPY

B1: dsDNA (dsDNA)
DNA 1: AGGGTTAGGGTTAGGGTTAGGG
DNA 2: CCCTAACCCTAACCCTAACCCT
Take B1: the binding result in the data set with TLS/FUSΔR and with TLS/FUSΔP was “no binding” throughout.

The Kd is the constant that tells how readily two partners part at equilibrium. A high value points to weaker binding. In turn, UUAGGGUUAGGGUUAGGGUUAGGG (structured_RNA) [TERRA] registered a dissociation constant Kd in data set [1] of 6.2 ± 2 nM. Further, the binding result with RGG3ΔP, in the data set with TLS/FUSΔR, in the data set with RGG3ΔRGG and with TLS/FUSΔP was “no binding” throughout.

In data set [1], AGGGTTAGGGTTAGGGTTAGGG (structured_DNA) [Htelo] came in with a dissociation constant Kd of 6.7 ± 2 nM. Moreover, the binding result with RGG3ΔP, in the data set with TLS/FUSΔR, in the data set with RGG3ΔRGG and in the data set with TLS/FUSΔP was “no binding” throughout.

B2: dsRNA (dsRNA)
RNA 1: UUAGGGUUAGGGUUAGGGUUAGGG
RNA 2: CCCUAACCCUAACCCUAACCCUAA
Take B2: the binding result with TLS/FUSΔR and with TLS/FUSΔP was “no binding” throughout.

For the molecule UUAGGGUUAGUGUUAGUGUUAGGG (ssRNA) [ssRNA], the binding result is given as “binds” with TLS/FUS; “no binding” with TLS/FUSΔR; “no binding” with RGG3ΔRGG; “no binding” with TLS/FUSΔP; “no binding” in the data set with RGG3.

For AGGGTTAGTGTTAGTGTTAGGG (ssDNA) [ssDNA], the binding result in the data set with TLS/FUSΔR, with RGG3ΔRGG, in the data set with TLS/FUSΔP and with RGG3 was “no binding” in each case.
